Reference: patent US6075125

Target: BFIV21FLAG: BFIV21 with the FLAG epitope on the amino terminal end, expressed on RP9 cells (chicken)
Assay: indirect immunofluorescence, flow cytometry on RP9-BFIV21FLAG cells (RP9-BFIV21: 21; RP9: 20)

log fluorescent mean channel number (mean log fluorescent channel number): 191
Substance: FLAG-specific monoclonal antibody M2 (Kodak-IBI) (tool reagent)
